# In patent US20260275317A1, “CHIMERIC ENDOLYSINS WITH ACTIVITY AGAINST STREPTOCOCCI AND STAPHYLOCOCCI” (UNIVERSITEIT GENT, priority 2023, published 2026):
# B1: NC3: chimeric endolysin SEQ ID NO: 15; CPP + PlySs2 CHAP + Ply1081 CW_7 + PlySs9 amidase_3 (protein)
# chain: MGFGCNGPWNEDDLRCRNHCKSIKGYKGGYCAKGGFVCKCYGATTVNEALNNVRAQVGSGVSVGNGECYALASWYERMISPDATVGLGAGVGWVSGAIGDTISAKNIGSSYNWQANGWTVSTSGPFKAGQIVTLGATPGNPYGHVVIVEAVDGDRLTILEQNYGGKRYPVRNYYSAASYRQQVVHYITPPGTVAQSAPNLAGAGIDQLVQETLAGKYGNGEQRKAALGSQYQAVMAVINGKATAPKKTVDQLAQEVIQGKHGNGEDRKKSLGPDYDAVQKRVTEILKGSPSGNIPKTPSDAPKSEVVNSSTEPKTEETGANGKATDTKITKGSGKHLVICGHGQGRTGYDPGAVNAKLGITEAGKVRELSKLMSKYSGQQIDFITEQNVYDYRSITSIGKGYDSITELHFNAFNGSAKGTEVLIQSSLEADKEDMAILSLLSRYFQNRGIKKVDWLYNANQAASRGYTYRLVEIAFIDNEQDMAIFENKKEDIAKGLVSAITGVEVKTIVPSPPSSTVGSSGTPSKSIYLVGDSLRVLPHATHYQTGQKIANWVKGRTYKILQVKNVHQSNSKRAYLLDGIKSWVLEQDVEGTTKGHSKYHHHHHH
# B2: NC8: chimeric endolysin SEQ ID NO: 20; CPP + PlySs2 CHAP + Ply1081 CW_7 + PlySs9 amidase_3 (protein)
# chain: MRQIKWFQNRRMKWKKGATTVNEALNNVRAQVGSGVSVGNGECYALASWYERMISPDATVGLGAGVGWVSGAIGDTISAKNIGSSYNWQANGWTVSTSGPFKAGQIVTLGATPGNPYGHVVIVEAVDGDRLTILEQNYGGKRYPVRNYYSAASYRQQVVHYITPPGTVAQSAPNLAGAGIDQLVQETLAGKYGNGEQRKAALGSQYQAVMAVINGKATAPKKTVDQLAQEVIQGKHGNGEDRKKSLGPDYDAVQKRVTEILKGSPSGNIPKTPSDAPKSEVVNSSTEPKTEETGANGKATDTKITKGSGKHLVICGHGQGRTGYDPGAVNAKLGITEAGKVRELSKLMSKYSGQQIDFITEQNVYDYRSITSIGKGYDSITELHFNAFNGSAKGTEVLIQSSLEADKEDMAILSLLSRYFQNRGIKKVDWLYNANQAASRGYTYRLVEIAFIDNEQDMAIFENKKEDIAKGLVSAITGVEVKTIVPSPPSSTVGSSGTPSKSIYLVGDSLRVLPHATHYQTGQKIANWVKGRTYKILQVKNVHQSNSKRAYLLDGIKSWVLEQDVEGTTKGHSKYHHHHHH
# B3: NC2: chimeric endolysin SEQ ID NO: 14; CPP + PlySs2 CHAP + PlySs2 SH3_5 + PlySs9 amidase_3 (protein)
# chain: MRRRRRRRRGATTVNEALNNVRAQVGSGVSVGNGECYALASWYERMISPDATVGLGAGVGWVSGAIGDTISAKNIGSSYNWQANGWTVSTSGPFKAGQIVTLGATPGNPYGHVVIVEAVDGDRLTILEQNYGGKRYPVRNYYSAASYRQQVVHYITPPGTVAQSAPNLAGAGSRSYRETGTMTVTVDALNVRRAPNTSGEIVAVYKRGESFDYDTVIIDVNGYVWVSYIGGSGKRNYVATGATKDGKRFGNAWGTFKGSGKHLVICGHGQGRTGYDPGAVNAKLGITEAGKVRELSKLMSKYSGQQIDFITEQNVYDYRSITSIGKGYDSITELHFNAFNGSAKGTEVLIQSSLEADKEDMAILSLLSRYFQNRGIKKVDWLYNANQAASRGYTYRLVEIAFIDNEQDMAIFENKKEDIAKGLVSAITGVEVKTIVPSPPSSTVGSSGTPSKSIYLVGDSLRVLPHATHYQTGQKIANWVKGRTYKILQVKNVHQSNSKRAYLLDGIKSWVLEQDVEGTTKGHSKYHHHHHH
# How the values were obtained:
# [1] = test system: S. uberis, S. aureus, S. agalactiae and S. dysgalactiae; assay: 2 h time killing assay in PBS and UHT-milk, relative in vitro scoring; format: cell-based; conditions: 0.25 μM
# Method: (§1) Concerning the time killing assay, an overnight bacterial culture was diluted 1:10 for S. uberis, S. agalactiae-& dysgalactiae or 1:100 for S. aureus in PBS or UHT-pasteurized whole cow's milk. A volume of 10 μL thereof was combined with an equal amount of chimeric endolysin in PBS (or only PBS as negative control) in triplicate and incubated in a covered 96-well microtiter plate at 37° C. for 2 h. […] Finally, these fractions were serially diluted 1:10 in PBS. 5 μL of each fraction was spotted on TSA or BHI-agar and incubated overnight at 37° C. The following day, colony forming units (CFU) were counted and converted to CFU/mL to calculate logarithmic reductions in comparison with the negative control. The relative scores were calculated by dividing the observed logarithmic reduction for each endolysin by the maximal reduction observed for that specific condition and strain. Next, this value was divided by the number of conditions and strains tested (i.e., 8=4 bacterial strains×2 conditions (PBS/UHT-milk)). As such, the best performing candidate in each individual assay received a score of 0.125 (=(1/1)/8). […] Turbidity reduction assays were performed by combining 100 μL of overnight grown bacterial cells with an equal volume of purified enzyme at the desired concentration. Bacterial cells were washed with PBS and resuspended in a 1:1 ratio with enzyme to an OD600 of approximately 1.0. Next, the OD600 was measured using a Tecan infinite 200 PRO plate reader (Tecan, Switzerland) every 15 seconds at 37° C., shaking the 96-well plate between each measurement.
# Stationary phase S. uberis 0140J or S. aureus N305 and one randomly chosen clinical isolate of S. uberis, S. aureus, S. agalactiae and S. dysgalactiae were challenged with a final concentration of 0.25 μM endolysin in a 2 h time killing assay (TKA) in both phosphate buffered saline (PBS) and ultra-high temperature pasteurized whole cow's milk (UHT-milk).
# [2] = test system: stationary phase S. uberis; assay: Turbidity reduction assay (TRA), S. uberis; format: cell-based, Streptococcus uberis; conditions: 0.3 μM
# Method: Concerning the time killing assay, an overnight bacterial culture was diluted 1:10 for S. uberis, S. agalactiae-& dysgalactiae or 1:100 for S. aureus in PBS or UHT-pasteurized whole cow's milk. A volume of 10 μL thereof was combined with an equal amount of chimeric endolysin in PBS (or only PBS as negative control) in triplicate and incubated in a covered 96-well microtiter plate at 37° C. for 2 h. The dose was low (i.e. 0.25 μM), but this was chosen to differentiate between less and better performing variants, consequently allowing a ranking. Finally, these fractions were serially diluted 1:10 in PBS. 5 μL of each fraction was spotted on TSA or BHI-agar and incubated overnight at 37° C. The following day, colony forming units (CFU) were counted and converted to CFU/mL to calculate logarithmic reductions in comparison with the negative control. The relative scores were calculated by dividing the observed logarithmic reduction for each endolysin by the maximal reduction observed for that specific condition and strain. Next, this value was divided by the number of conditions and strains tested (i.e., 8=4 bacterial strains×2 conditions (PBS/UHT-milk)). As such, the best performing candidate in each individual assay received a score of 0.125 (=(1/1)/8). […] Turbidity reduction assays were performed by combining 100 μL of overnight grown bacterial cells with an equal volume of purified enzyme at the desired concentration. Bacterial cells were washed with PBS and resuspended in a 1:1 ratio with enzyme to an OD600 of approximately 1.0. Next, the OD600 was measured using a Tecan infinite 200 PRO plate reader (Tecan, Switzerland) every 15 seconds at 37° C., shaking the 96-well plate between each measurement.
# (§2) Time killing and turbidity reduction assays were performed as previously described in 1.3.1.
# [3] = test system: stationary phase S. uberis; assay: Time killing assay (TKA), S. uberis; format: cell-based, Streptococcus uberis; conditions: 0.3 μM; for ΔLog10 (CFU/mL): 1 h
# Method: as §1, with “milk.” for “milk. A volume of 10 μL thereof was combined with an equal amount of chimeric endolysin in PBS (or only PBS as negative control) in triplicate and incubated in a covered 96-well microtiter plate at 37° C. for 2 h.”
# as §2
# Time killing assays were performed as previously described in 1.3.1.
# [4] = test system: S. aureus; assay: TRA and TKA against S. aureus mastitis isolates; format: cell-based, Staphylococcus aureus; conditions: S. aureus (sub)clinical isolates
# Method: Concerning the time killing assay, an overnight bacterial culture was diluted 1:10 for S. uberis, S. agalactiae-& dysgalactiae or 1:100 for S. aureus in PBS or UHT-pasteurized whole cow's milk. A volume of 10 μL thereof was combined with an equal amount of chimeric endolysin in PBS (or only PBS as negative control) in triplicate and incubated in a covered 96-well microtiter plate at 37° C. for 2 h. The dose was low (i.e. 0.25 μM), but this was chosen to differentiate between less and better performing variants, consequently allowing a ranking. Finally, these fractions were serially diluted 1:10 in PBS. 5 μL of each fraction was spotted on TSA or BHI-agar and incubated overnight at 37° C. The following day, colony forming units (CFU) were counted and converted to CFU/mL to calculate logarithmic reductions in comparison with the negative control. The relative scores were calculated by dividing the observed logarithmic reduction for each endolysin by the maximal reduction observed for that specific condition and strain. Next, this value was divided by the number of conditions and strains tested (i.e., 8=4 bacterial strains×2 conditions (PBS/UHT-milk)). […] Next, the OD600 was measured using a Tecan infinite 200 PRO plate reader (Tecan, Switzerland) every 15 seconds at 37° C., shaking the 96-well plate between each measurement. […]
# [5] = Clinical S. uberis 1 (Unknown ST and GCC)
# [6] = Clinical S. uberis 2 (Unknown ST, GCC 5)
# [7] = Clinical S. uberis 3 (Unknown ST, GCC 5)
# [8] = Clinical S. uberis 4 (ST 815, GCC 143)
# [9] = Clinical S. uberis 5 (ST 944, GCC 5)
# [10] = Subclinical S. uberis 1 (ST 808, GCC 143)
# [11] = Subclinical S. uberis 2 (Unknown ST and GCC)
# [12] = Subclinical S. uberis 3 (Unknown ST, GCC 5)
# [13] = Subclinical S. uberis 4 (Unknown ST and GCC)
molecule,measurement,setting,value
B1,ranking by cumulative relative in vitro score,[1],overall best performing candidates
B2,ranking by cumulative relative in vitro score,[1],overall best performing candidates
B3,ranking by cumulative relative in vitro score,[1],overall best performing candidates
same,lysis speed (ΔOD600/min)/μM,[2]; [5],0.03 (ΔOD600/min)/μM
same,ΔOD600,"[2]; Clinical S. uberis 1 (Unknown ST and GCC), 1 h",0.32
same,lysis speed (ΔOD600/min)/μM,[2]; [6],0.08 (ΔOD600/min)/μM
same,ΔOD600,"[2]; Clinical S. uberis 2 (Unknown ST, GCC 5), 1 h",0.54
same,lysis speed (ΔOD600/min)/μM,[2]; [7],0.22 (ΔOD600/min)/μM
same,ΔOD600,"[2]; Clinical S. uberis 3 (Unknown ST, GCC 5), 1 h",0.72
same,lysis speed (ΔOD600/min)/μM,[2]; [8],0.04 (ΔOD600/min)/μM
same,ΔOD600,"[2]; Clinical S. uberis 4 (ST 815, GCC 143), 1 h",0.30
same,lysis speed (ΔOD600/min)/μM,[2]; [9],0.12 (ΔOD600/min)/μM
same,ΔOD600,"[2]; Clinical S. uberis 5 (ST 944, GCC 5), 1 h",0.63
same,ΔOD600,[2]; S. uberis 0140J,0.53±0.01
same,lysis speed (ΔOD600/min)/μM,[2]; [10],0.18 (ΔOD600/min)/μM
same,ΔOD600,"[2]; Subclinical S. uberis 1 (ST 808, GCC 143), 1 h",0.65
same,lysis speed (ΔOD600/min)/μM,[2]; [11],0.06 (ΔOD600/min)/μM
same,ΔOD600,"[2]; Subclinical S. uberis 2 (Unknown ST and GCC), 1 h",0.59
same,lysis speed (ΔOD600/min)/μM,[2]; [12],0.18 (ΔOD600/min)/μM
same,ΔOD600,"[2]; Subclinical S. uberis 3 (Unknown ST, GCC 5), 1 h",0.67
same,lysis speed (ΔOD600/min)/μM,[2]; [13],0.15 (ΔOD600/min)/μM
same,ΔOD600,"[2]; Subclinical S. uberis 4 (Unknown ST and GCC), 1 h",0.66
same,ΔLog10 (CFU/mL),[3]; [5],0.00 Log10 (CFU/mL)
same,ΔLog10 (CFU/mL),[3]; [6],4.16 Log10 (CFU/mL)
same,ΔLog10 (CFU/mL),[3]; [7],1.66 Log10 (CFU/mL)
same,ΔLog10 (CFU/mL),[3]; [8],0.01 Log10 (CFU/mL)
same,ΔLog10 (CFU/mL),[3]; [9],0.86 Log10 (CFU/mL)
same,Δ log10,[3]; S. uberis 0140J,0.90±0.03 log10
same,ΔLog10 (CFU/mL),[3]; [10],2.84 Log10 (CFU/mL)
same,ΔLog10 (CFU/mL),[3]; [11],1.02 Log10 (CFU/mL)
same,ΔLog10 (CFU/mL),[3]; [12],1.31 Log10 (CFU/mL)
same,ΔLog10 (CFU/mL),[3]; [13],2.84 Log10 (CFU/mL)
same,"enzymatic (ΔOD600) and killing (Δ log10) activity, NC2 pairwise versus NC5",[4],"significantly (p<0.001) improved enzymatic (i.e., ΔOD600) and killing (i.e., Δ log10) activity"
